Assay results reported in the supplement of paper PMC9732359.
± gives the uncertainty stated by the source.

Assay: protein stability index of a GFP-peptide fusion (yeast GPS) (PSI 1-4); higher = more stable; sorted into four equal gates, so the index is relative within each strain
Procedure, shortened: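 Peptides tiling yeast proteins in 17-residue segments were fused downstream of GFP, with Cherry expressed from the same plasmid. As a pooled library in yeast, mid-log cultures grown in leucine-free medium were sorted into four equal gates by GFP/Cherry fluorescence ratio. Gate plasmids were PCR-amplified and Illumina-sequenced, and barcodes linked reads to strains. Each peptide received a protein stability index equal to the sum of each gate's read frequency times its gate number.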

| Sequence | protein stability index (doa10∆) | protein stability index (pdr5∆) | protein stability index (san1∆) | protein stability index (ubr1∆) |
| --- | --- | --- | --- | --- |
| GTISIQLKNGLLEKYNT [MTR3] | 2.28 ± 0.059 | 2.5 ± 0.073 | 2.42 ± 0.082 | 2.43 ± 0.037 |
| KERLTKEAAAVAEGKSK [RPL8A] | 3.53 ± 0.16 | 2.74 ± 0.22 | 3.31 ± 0.15 | 3.1 ± 0.16 |
| FSDKVNALWILVDLVSH [ITC1] | 1.4 ± 0.079 | 1.23 ± 0.051 | 1.35 ± 0.094 | 1.27 ± 0.045 |
| NGLGTSHINTNVGDNNS [ARP7] | 3.13 ± 0.12 | 2.77 ± 0.099 | 2.74 ± 0.082 | 3.28 ± 0.11 |
| QEETVVEQTAEVTIEDA [RPS12] | 3.36 ± 0.12 | 3.38 ± 0.13 | 3.19 ± 0.048 | 3.33 ± 0.056 |
| NELLKCKDDVQLQKILE [MTW1] | 2.97 ± 0.057 | 3.04 ± 0.051 | 3.05 ± 0.035 | 3.04 ± 0.037 |
| SKYGMLLLRCDDRVDKK [POP3] | 3.34 ± 0.14 | 3.35 ± 0.087 | 3.03 ± 0.076 | 3.09 ± 0.077 |
| DHLVSSIPMGGQSINDS [ARP9] | 2.78 ± 0.11 | 2.89 ± 0.093 | 3.08 ± 0.068 | 3.13 ± 0.1 |
| LRLVDDDENNPSHYPHP [RRP6] | 3.11 ± 0.09 | 2.92 ± 0.093 | 2.77 ± 0.069 | 2.89 ± 0.038 |
| RVLITQRHIAVGKQIVN [RPS9A] | 2.22 ± 0.072 | 1.92 ± 0.087 | 2.83 ± 0.12 | 2.59 ± 0.15 |
| LNLKFKEKWPSLELQSF [YML103C/NUP188] | 2.72 ± 0.097 | 2.54 ± 0.14 | 1.92 ± 0.11 | 2.05 ± 0.19 |
| VHPVNEREPVPLGILHI [RRP45] |  | 2.63 ± 0.16 |  | 2.15 ± 0.19 |
| SLGFLQQSNKLHCCIQL [RPN3] | 2.39 ± 0.06 | 2.47 ± 0.085 | 1.86 ± 0.12 | 2.14 ± 0.058 |
| GESEKSSDVDMDDEEWR [RPC53] | 3.7 ± 0.22 | 3.63 ± 0.21 | 3.35 ± 0.21 | 3.33 ± 0.18 |
| GYTQHGGLRPFGVSFIY [PRE9] | 2.67 ± 0.22 | 2.03 ± 0.098 | 1.84 ± 0.1 | 1.65 ± 0.064 |
| PRINNISAEDRADTDLA [SNF2] | 1.94 ± 0.15 | 2.51 ± 0.14 | 3.02 ± 0.084 | 2.86 ± 0.086 |
| MDNKTPVTLAKVIKVLG [RPS28A] | 1.16 ± 0.12 | 1.77 ± 0.22 | 1.16 ± 0.27 | 2.55 ± 0.27 |
| AAQTNATFLKLAAPQLV [RPT5] | 2.62 ± 0.16 | 3.17 ± 0.15 | 2.41 ± 0.083 | 2.86 ± 0.11 |
| SFDAVSDSIELLKQYPK [YJR042W/NUP85] | 2.86 ± 0.083 | 3.16 ± 0.085 | 2.56 ± 0.11 | 2.59 ± 0.087 |
| TRGPFHFRAPSRILYKA [RPL16B] | 2.3 ± 0.064 | 2.43 ± 0.045 | 2.08 ± 0.068 | 2.27 ± 0.042 |
| TQAKKLYHHTTKTILSG [SRP72] | 3.17 ± 0.069 | 2.86 ± 0.051 | 2.49 ± 0.098 | 3.26 ± 0.046 |
| EAESQWYIEKVIRIPMQ [CSI1] |  | 2.96 ± 0.24 |  | 2.71 ± 0.24 |
| KKRIRLPSEERIQKIIS [YIL149C/MLP2] | 2.66 ± 0.074 | 2.49 ± 0.062 | 2.71 ± 0.081 | 2.72 ± 0.04 |
| RRGTALGIKKEKRIQYA [RPB2] | 1.95 ± 0.08 | 1.44 ± 0.14 | 2.33 ± 0.15 | 2.89 ± 0.072 |
| SNIGNNSINNNNIKNGT [YDL088C/ASM4] | 2.72 ± 0.047 | 2.85 ± 0.057 | 2.85 ± 0.047 | 2.65 ± 0.042 |
| TYVLNTWTNSKIFIKDP [YML103C/NUP188] | 2 ± 0.056 | 2.15 ± 0.046 | 2.3 ± 0.058 | 2.23 ± 0.034 |
| HIIQAKADAQREKALNE [RPL19A] | 3.29 ± 0.19 | 3.38 ± 0.094 | 3.33 ± 0.086 |  |
